From the DeepSol protein solubility set come the findings set out here.

The data set in a line: soluble on expression in E. coli; label from the status in PepcDB or PDB records.
As to “MGSDKIHHHHHHMTTRLQDIIQPEIFTEYVVQRTTEKSALVQSGIIERNAEFDALASGPNTLVNMPFWNDLTGDSEVIRDEGNLTAGKITSGKDVARKQGRARMWGASGLSALLSGDDPMRAIADLVADYWIRQDQKMLLATLEGIFNSESMADKVLDITGEPGSDALLDGDSFIDAGQLMGDAKDLLTGVMMHSAVEAYLAKRQLIEYVQEADQTDRIPYFMNKRVIVDDAMPYDTQTKEGVIYLFGTGAIASGVGSHPNILPTEVDRNSQSSSGEDFLINRRIQILHPRGVKWTENNVSDVFPTNEELADGSNWERVYEPKAIRIVKFKFKTELDVDGA”, the “soluble on expression in E. coli” value is recorded as “not soluble”.

In the case of “MSTTTDYDDNDVKIITKPVQSKNPVLIEGFPGIGLVGNIASQHIIEELNMEYIGSIDSRYFPSIAVLYEGLINMPVRIYENVEHNLIIVISDIPISHSVSYDVSNALVDWAEAINVKEIASIAGIAIMDGGHKVFGAATTPEMLDKIRDKVEIFQMGTISGISGSVMAECLLRGIPAISLLGATRTQNPDPRAASSVIGVLNELYGLSISTDRLIEQAERIEIELQRLAEDVQATERKGEVKKEFPMYG”, the “soluble on expression in E. coli” value was “soluble”.

In the case of “AAIDPNRIVALEWLPVELLLALGIVPYGVADTINYRLWVSEPPLPDSVIDVGLRTEPNLELLTEMKPSFMVWSAGYGPSPEMLARIAPGRGFNFSDGKQPLAMARKSLTEMADLLNLQSAAETHLAQYEDFIRSMKPRFVKRGARPLLLTTLIDPRHMLVFGPNSLFQEILDEYGIPNAWQGETNFWGSTAVSIDRLAAYKDVDVLCFDHDNSKDMDALMATPLWQAMPFVRAGRFQRVPAVWFYGATLSAMHFVRVLDNAIGGKA”, the “soluble on expression in E. coli” value is “soluble”.

As for “MGSDKIHHHHHHMVKPDHGRKRQIELTEIGERIYQHAVELLQAEQNIFLEIENYQQLKTGTLKLGVPPLGSQLLTTALFDFHRQWPDIELAFMEVGSRGIEQALLNNELDVGVLLQPFDEQTFNSIELCNYPLMVLLRRDATWATRKKINLEELQHQSFLMFPENFSLNSIILDACKQYGFYPTIACRTSQWHLLADMVLQRMGIALLPQYYTDMLDPTLFAAVPLEKPNIQWHLVMAWKKNLPASPAVQAWLSIVRQHFQHIKP”, the “soluble on expression in E. coli” value is given as “not soluble”.

On to “MNGQNFNEMLHDEQVFAEFMVPNAHTTPNLWRIQQQNQENQIPQNFQHLDFQYFQYQNQKQEVVHGAHCMGTVGSSWNEQVAVKKPSSSQSRKGGKNKEEAREKNHQKNKALLEMLNQVDPAVIDAEIEEQKEKQRLRKNRGRYDPIGAHGAQQGTRGVQNEVQYHRNFQNNNNNNS”, for which the “soluble on expression in E. coli” value was “not soluble”.

“MSSQNANLMREVRLFENHSEREQMENLSELFAVLNALEHLEKMFSRDHVSADEYKSECFKLIDQYKVTMRLVHGATSIEDFAKKYRLHCPAAIERIREGRPITVKDDQGNVLKHIASIVEQFITFLDALRLNTRAVDDLYPGLDDLYNAINTTSRVPIDAIVTTKVKKWHDRLSSMAASDEISDEDARQMIFDVESAYQAFNKALNELKH”: the “soluble on expression in E. coli” value is listed as “soluble”.

Take “MGHHHHHHSHMYSLNQEIKAFSRNNLRKQCTRVTTLTGKKIIETWKDARIHVVEEVEPSSGGGCGYVQDLSSDLQVGVIKPWLLLGSQDAAHDLDTLKKNKVTHILNVAYGVENAFLSDFTYKSISILDLPETNILSYFPECFEFIEEAKRKDGVVLVHCNAGVSRAAAIVIGFLMNSEQTSFTSAFSLVKNARPSICPNSGFMEQLRTYQEGKESNKCDRIQENSS”: the “soluble on expression in E. coli” value is given as “not soluble”.

As for “SNNWVVSGSLTVSGNPLLANDPHLSLTAPGIWLPIVISSPSYSLAGVTIPGVPLVVIGRNSHVAWGFTNVGSDFTDFYRYQWVDENRYFYKGRIFGVEKSSIEAYVWDPLARSYRVQEISVARTIHGPVIEWQGEKFAVSYTSARPTFEMIFLWLLNKASSVRDALSAQRYFYGPPQNMVVADSAGNIAYSPVGAYPERATLPTIETGYGPIVNTGFLPFDGSAGEGEWRGFKPYSSLPVLFNPPQGFVATANSKPFEDGCWDGLGWDYADRFRTERIYTLLQERSAEEPLDAGDMRDIQLDVEDLGLKTLVSLMVRVASGDGGHVLERYMDMLAEWAENPQMNVDDYKPTLALLASWYFARDFWESLYGSEEHWRFIKLEYAEKALKAYLRGEDWVFNYF”, the “soluble on expression in E. coli” value was “not soluble”.

With “MDPLVSFFDGMAQASWLRPVHDRLKKGTGSWANRAVLDVGCGTGRLLARGVHEAAHLAGVDLSKQMVLATEERLHEHKQCGRLTVVQGDAYDLPFADESFDVCLSTCVMFLLPEPERGMKEMIRVLNGAGVIGMLNPTNKMNHAAAKAYCKKSGITGFEEKTLLQWSNVSTRRHRYTAEQLTHFFKQHGAWVVTHELVLDGLAVVTVASWNKLEHHHHHH”, the “soluble on expression in E. coli” value is given as “not soluble”.

For the sequence “MGSDKIHHHHHHMLEIGFCTLEDQCPYLKDKRSRIEYKYIENCPKEINNELIKRGWRRFGRYFSRPICKDCDECLSLRILVNEYNFSRSERRVVNKNINTKVILRTPNLSNEHLFLYDKYHRFMEEKKNWKRYDLSFKQYYNLYVDGFMNFGYELAFYIEDKLVCVDLIDILEDGISSIYCFYDPDFSYFSLGKFSLLNEIQIAKKMNLDYIYLGYFVKKCQSLSYKADYTPNEILKGTKELFENEVLWEK”, the “soluble on expression in E. coli” value is recorded as “not soluble”.

In the case of “MTIEEIARIVEGEILCGNKDLNIERAVATDLMSDVLAFAEPNVLLITGLHSPQAVRTAMVVGIPAVLFVRKRDIPETIVNFAKECNITVLATNLSMFETCGRLYMNGLKPVRRAIE”, the “soluble on expression in E. coli” value was “not soluble”.

On to “MGHHHHHHSHMEQTEVLKPRTLADLIRILHQLFAGDEVNVEEVQAIMEAYESDPIEWAMYAKFDQYRYTRNLVDQGNGKFNLMILCWGEGHGSSIHDHTNSHCFLKMLQGNLKETLFAWPDKKSNEMVKKSERVLRENQCAYINDSIGLHRVENISHTEPAVSLHLYSPPFDTCHAFDQRTGHKNKVTMTFHSKFGIRTPNATSGSLENN”, for which the “soluble on expression in E. coli” value is listed as “not soluble”.

Consider “NIYDSANELSRGLRGLPEYKAVKAAKDAIAADAEASKIFTDYLAFQEEIQKLAQTGQMPDASFQAKMEGFGKQIQGNSLLSEFFTKQQQLAIYLSDIEKIVFEPVSELLK”, for which the “soluble on expression in E. coli” value is reported as “not soluble”.

Take “MGHHHHHHSHRNLDSRTFITIGDRNFEVEADDLVTISELGRGAYGVVEKVRHAQSGTIMAVKRIRATVNSQEQKRLLMDLDINMRTVDCFYTVTFYGALFREGDVWICMELMDTSLDKFYRKVLDKNMTIPEDILGEIAVSIVRALEHLHSKLSVIHRDVKPSNVLINKEGHVKMCDFGISGYLVDSVAKTMDAGCKPYMAPERINPELNQKGYNVKSDVWSLGITMIEMAILRFPYESWGTPFQQLKQVVEEPSPQLPADRFSPEFVDFTAQCLRKNPAERMSYLELMEHPFFTLHKTKKTDIAAFVKEILGEDS”: the “soluble on expression in E. coli” value is given as “not soluble”.

With “MNRSALDFRHFVDHLRRQGDLVDVHTEVDANLEIGAITRRVYERRAPAPLFHNIRDSLPGARVLGAPAGLRADRARAHSRLALHFGLPEHSGPRDIVAMLRAAMRAEPIAPRRLERGPVQENVWLGEQVDLTRFPVPLLHEQDGGRYFGTYGFHVVQTPDGSWDSWSVGRLMLVDRNTLAGPTIPTQHIGIIREQWRRLGKPTPWAMALGAPPAALAAAGMPLPEGVSEAGYVGALVGEPVEVVRTQTNGLWVPANTEIVLEGEISLDETALEGPMGEYHGYSFPIGKPQPLFHVHALSFRDQPILPICVAGTPPEENHTIWGTMISAQLLDVAQNAGLPVDMVWCSYEAATCWAVLSIDVQRLAALGTDAAAFAARVAETVFGSHAGHLVPKLILVGNDIDVTEIDQVVWALATRAHPLHDHFAFPQIRDFPMVPYLDAEDKARGSGGRLVINCLYPEQFAGQMRAATASFRHAYPTALRRRVEERWSDYGFGDALEHHHHHH”, the “soluble on expression in E. coli” value is on record as “not soluble”.

With “MIRLAPLITADVDTTTLPGGKASDAAQDFLTLLSEALAGETTTDKAAPQLLVATDKPTTKGEPLVSDILADAQQADLLIPVDETLPVINDEQSTSTPLTTAQTMTLAAVADKNTTKDEKADDLNEDVTASLSALFAMLPGFDNTPKVTDAPSTVLPAEKPTLFTKLTSAQLTTAQPDDAPGTPAQPLTPLVAEAQSKAEVISTPSPVTADASPLITPHQTQPLPTVAAPVLSAPLGSHEWQQSLSQHISLFTRQGQQSAELRLHPQDLGEVQISLKVDDNQAQIQMISPHQHVRAALEAALPVLRTQLAESGIQLGQSNISGESFSGQQQAASQQQQSQRTANHEPLAGEDDDTLPVPVSLQGRVTGNSGVDIFA”, the “soluble on expression in E. coli” value was “not soluble”.

Regarding “LYFQGMSLEPFGARLSRAMDDRGPLCVGIDPHASLLADWGLSDDVAGLERFSRTVVEALGEHVAVFKPQSAFFERFGSRGVAVLEKTVAEARAAGALVVMDAKRGDIGSTMAAYAEAFLRKDSPLFSDALTVSPYLGYGSLRPAVELARESGAGLFVLALTSNPEGGEVQHAVRTDGRDVAATMLAHLAAENAGEEPLGSFGAVVGATLGDLSSYDLDINGPLLAPGIGAQGAAPADLPGVFGAAVRNVVPNVSRGVLRHGPDVRALRTAADRFAEEIRAAVAA”, the “soluble on expression in E. coli” value is listed as “soluble”.

Turning to “MAQAFVDATWPQAAKAAQSLGVPAHFLVAQAALETGWGKSQIRNKDGTPSYNLFNIKAGSNWTGKVVEARTVEYENGQRKVRVERFRAYDSYEQAFQDYADLVGNSPRYAKVAGKTDGHAFARALQEGGYATDPSYADKLARVINGNALRQRLMASAASARGLEHHHHHH”, the “soluble on expression in E. coli” value is given as “soluble”.

Take “NEVDDMDTSDTQWGWFYLAECGKWHMFQPDTNSQCSVSSEDIEKSFKTNPCGSISFTTSKFSYKIDFAEMKQMNLTTGKQRLIKRAPFS”: the “soluble on expression in E. coli” value is on record as “soluble”.

On to “MVVKIKGKVFVFGDNVNTDEIIPARYLNTSDPQELAKYCMEDARPGFGRRDDIKGSIIVAGENFGCGSSREHAPVAIKAAGISCVIAKSFARIFFRNAINIGLPIVELKEADEFEEGDIAEVDLENGVVRNLTKGKEYRIRPYPEFLMKIMEAGGWLEYCLKEVGE”, for which the “soluble on expression in E. coli” value is reported as “soluble”.

Turning to “MPVDRILEAELAVEQKSDQGVEGPGGTGGSGSSPNDPVTNICQAADKQLFTLVEWAKRIPHFSSLPLDDQVILLRAGWNELLIASFSHRSIDVRDGILLATGLHVHRNSAHSAGVGAIFDRVLTELVSKMRDMRMDKTELGCLRAIILFNPDAKGLSNPSEVEVLREKVYASLETYCKQKYPEQQGRFAKLLLRLPALRSIGLKCLEHLFFFKLIGDTPIDTFL”, the “soluble on expression in E. coli” value is recorded as “soluble”.

Consider “MGSDKIHHHHHHMSYITTKNQYITVSNNKIAYRELSKGKSDIPLVMLVHLAATLDNWDPKLLDLLAEQHHVIVLDLPGVGASQGKVAPTIPGMAEQAVSIIKALGYEKINLLGLSMGGFIAQEIVRLDSQLVNRLILAGTGPRGGFEVDKVTGKTFRYMLKAGLERVDPKRYIFYNHDEAGRLEAEKVLGRMGQRSAAHADKDMNVPGFLTQLKAIKRWGREPQDDMTFITQPTLIVNGDKDMQVPTENSYTMHEKIKNSQLIIYPNAGHGSIFQNVEDFSKALLAFLEETNA”, for which the “soluble on expression in E. coli” value is on record as “not soluble”.

For “MSLRLDKFIAENVGLTRSQATKAIRQSAVKINGEIVKSGSVQISQEDEIYFEDELLTWIEEGQYFMLNKPQGCVCSNDDGDYPTIYQFFDYPLAGKLHSAGRLDVDTTGLVLLTDDGQWSHRITSPKHHCEKTYLVTLADPVEENYSAACAEGILLRGEKEPTKPAKLEILDDYNVNLTISEGRYHQVKRMFAALGNKVVGLHRWKIGDVVLDESLEEGEYRPLTQSEIEKLVEGGSHHHHHH”, the “soluble on expression in E. coli” value was “soluble”.
